Test results: patent publication US9744212B2, “Galectin-3C combination therapy for human cancer” (Texas Tech University System, priority 2011, dated 2017)

What was measured:
human breast cancer = settings: mouse model of human breast cancer, reference (60); cited from earlier work
[1] = tested on: U266 MM subcutaneous tumors; test: U266 subcutaneous tumor model of MM in NOD/SCID mice; format: in vivo, mouse; settings: for mean difference of tumor volume between Gal-3C and Bor: Gal-3C lower than Bor, P<0.001
Protocol: Testing Gal-3C and Bonin NOD/SCID mouse model of MM: Prior to injection, U266 cells were washed once in Dulbecco's PBS (Sigma-Aldrich), counted, and adjusted to the appropriate density with additional PBS prior to inoculation. PBS containing a suspension of 1×10^7 U266 cells was injected subcutaneously into the abdomen of naive NOD/SCID mice. The primary tumors were measured with a pair of calipers once a week. Tumor volume was calculated by the formula width 2×length×0.5, where width was the smallest dimension. The mice were randomly divided into four groups with five mice in each group after 14 days. Control group #1 was subcutaneously implanted in the abdomen with a PBS-only containing 200-μl mini-osmotic pump. Group #2 received a dose of Gal-3C (30 μg/d/mouse) subcutaneously over a 16-day period for a total of 500 μg via a 200-μl mini-osmotic pump implanted abdominally. Group #3 was treated with six doses of 15 μg Bonin 50-μl injections via the tail vein on days 1-2, 8-9, and 15-16 for a total of 90 μg. Group #4 received Gal-3C via mini-pump for a total dose of 500 μg Gal-3C (30 μg/d/mouse) plus a total 90 μg Bor in 21 days. Anesthetized animals were euthanized and a post-mortem examination was conducted on the whole animals and dissected organs after 35 days.

HUVEC [2] = test: Vascular endothelial cell viability assay; format: cell-based, human; settings: 48 h
Protocol: FIGS. 4A and 4B are graphs of the data from the vascular endothelial cell viability assay. […] The graphs show mean values and error bars represent 95% C.I. **=ANOVA Tukey's post test p<O.Ol. n.s.=not significant. […] Viability was measured as described for the U266 cells. […] Results obtained from the HUVEC viability studies that were run in triplicate are depicted in FIGS. 4A-B, and are presented as a percentage of control (untreated) cells.
EXAMPLE 3 illustrates Gal-3C inhibits proliferation of MM cells. Cell Proliferation (Viability) Assays. Cell proliferation was assessed with a ViaLight Plus Cell Proliferation and Cytotoxicity BioAssay Kit (Lonza, Walkersville, Md., USA) according to the directions of the manufacturer. In brief, myeloma cells were seeded (8,000 per well) in 50 μL of RPMI-1640 with 10% heat-inactivated FBS (growth medium) in 96-well plates. HUVEC cells were seeded (10,000/well) in 50 μl EGM-2 medium in 96-well plates. Gal-3C (2× concentration) in 50 μL of growth medium was added to triplicate wells and the plate kept at the CO2 incubator at 37° C. for 48 hour. For the ViaLight assay, 50 μL of lysis buffer was added to each well, the plate was incubated for 10 minutes, after which 50 μL of cell lysate from each well was transferred to a solid white Lumitrac-200 plate and 50 μL of reconstituted AMR Plus was added. Luminescence was measured with a 1-s integrated setting in a Berthold luminometer after 2 minutes. With Alamar Blue, 10 μL of reagent was added per well and the plate kept in the CO2 incubator for 4 hours. Fluorescence intensity was measured at 590-nm on a Polarstar Galaxy (BMG Labtech, Cary, N.C.) microplate reader. The blank (growth media with 10 μl Alamar Blue) was subtracted from the raw fluorescence to obtain adjusted fluorescence readings. Triplicate data points were analyzed and the data shown are representative of 3 or more studies.

[3] = tested on: NF-kB (serine 529 phosphorylated p65 subunit); test: Quantification of NF-kappaB activation by flow cytometry in U266 cells; format: cell-based, human; settings: 48 hours
Protocol: Quantification of NF-kappaB Activation by Flow Cytometry. For measurement of NF-kB activation, 200×10^3 cells were fixed with 2% PFA in ice-cold PBS for 30 minutes. After removal of PFA, cells were permeabilized with 0.3% saponin in PBS on ice for 15 minutes, then washed and resuspended in 50 μL PBS supplemented with 1% BSA. PE-labeled anti-phosphorylated serine 529 p65 antibody (BD Biosciences, San Jose, Calif., USA) or isotype control (final dilution, 1:20) and allowed to incubate on ice in the dark for 30 minutes. Before flow-cytometric analysis cells were washed 3 times in 1-mL cold PBS with 1% BSA.
FIG. 8A is a dot-plot of NF-kB activation in U266 cells. After 48 hours in the presence of indicated treatments, the levels of active NF-KB (serine 529 phosphorylated p65 subunit) were evaluated in U266 cells by flow cytometry.

HUVEC [4] = test: HUVEC chemotaxis (migration) toward U266 conditioned media; format: cell-based, human; settings: U266 treated 48 h with 10 μg/mL Gal-3C, 5 nM Bor or both; 20% conditioned medium; ANOVA, Tukey's post-test
Protocol: Chemotaxis of HUVEC Cells. Chemotaxis (migration) was analyzed with HUVEC cells as a measure of angiogenic potential as reported (86), using 50×10^3 cells/well and 24-well transwell inserts with 8-μm pores. […] As a negative control, EGM-2 medium alone was used. After incubation for 16 h, cells were removed from the upper chamber, and the migrated cells were visualized on the lower side of the filter after fixing and staining with 30% methanol, 10% acetic and 0.1% Coomassie Brilliant Blue. Next, the filters were extensively washed with water, and then air-dried and photographed using an inverted X71 microscope (Olympus, Center Valley, Pa., USA). The average number of cells in 4 random fields per filter was calculated. The studies were run in triplicate and the results are expressed as a migration index (MI), as follows: MI=number of cells migrated in the presence of conditioned medium/number of cells migrated in the presence of EGM-2 alone. […] All assays were run in triplicate.
FIG. 3A is a graph of the results from the vascular endothelial cell migration assay. FIG. 3B is an image of the filters. […] Mean migration indexes (left; ±95% C.I.) expressed as the number of cells migrated in the presence of the indicated stimulus divided by the number of cells migrated in the presence of EBM-2 alone. […]

U266 MM cells = test: Chemotaxis of U266 cells toward SDF-1α in transwell chambers; format: cell-based, human; settings: Gal-3C at 2.0 μg/ml; SDF-1α 100 ng/ml; 4 hours
Protocol: Chemotaxis of U266 Cells. U266 cells (400×10^3/well) were plated in 100-μl cell culture media with and without Gal-3C (0, 0.4, 2.0, 10, and 20 μg/ml) in the top chambers of 24-well transwell inserts with 8-μm pores. Cell culture media (600 μ ? ) containing the B-cell chemoattractant stromal cell-derived factor (SDF)-1 ? (100 ng/ml; R&D Systems, Minneapolis, Minn., USA) was added to the bottom chamber. After 4 hours, the number of U266 cells in the bottom chamber was counted with a FACScan flow cytometer (flux rate on high, a 2 min acquisition gate, and 200 μs resolution).
FIG. 2 is a graph of Gal-3C inhibits the chemotaxis of U266 MM cells Gal-3C (0.4, 2, 10, or 20 μg/ml) in bicameral chambers in response to stromal cell-derived factor (SDF)-1α (100 ng/ml). Error bars are ±S.D. and sextuplicate data points are represented (ANOVA with Turkey test P<0.001 for all comparisons to controls). […] Gal-3C at 2.0 μg/m1 inhibited more than 60% of the U266 cell chemotaxis stimulated by the chemokine, SDF-1α. The SDF-1α and its receptor, CXCR4, are regulators of the migration and homing of MM cells to the bone marrow, and possibly may also control egression of MM cells out of the bone marrow (76).

B1: Gal-3C: N-terminally truncated human galectin-3 consisting of 143 carboxy-terminal amino acid residues, SEQ ID NO: 1 (protein)
chain: GAPAGPLIVPYNLPLPGGVVPRMLITILGTVKPNANRIALDFQRGNDVAFHFNPRFNENNRRVIVCNTKLDNNWGREERQSVFPFESGKPFKIQVLVEPDHFKVAVNDAHLLQYNHRVKKLNEISKLGISGDIDITSASYTMI
- adverse side effects (human breast cancer): no evidence of adverse side effects
- tumor growth and metastasis (human breast cancer): inhibited tumor growth and metastasis
- mean difference of tumor volume between Gal-3C and Bor ([1]; day 21): 4.431±1.494 mm^3
- average tumor volume relative to that of the untreated controls ([1]; day 35, Gal-3C 30 μg/d/mouse by mini-osmotic pump, Bor six doses of 15 μg via tail vein): 13.5%
- mean difference of tumor volume between Gal-3C and Bor ([1]; day 35): 31.54±4.379 mm3
- effect on HUVEC viability (HUVEC [2]; at the concentration used in the chemotaxis and angiogenesis assays (Gal-3C 2 μg/ml, Bor 1 nM)): did not display significant effects
- effect on HUVEC viability (HUVEC [2]; at the highest concentrations): mild effect
- NF-kB activation (phosphorylated active form) [3]: did not have a significant effect
- migration index compared with controls (HUVEC [4]): no significant difference
- inhibition of U266 cell chemotaxis stimulated by SDF-1α (U266 MM cells): more than 60%
